Data reported in paper PMC10130750, “The motor domain of the kinesin Kip2 promotes microtubule polymerization at microtubule tips” (The Journal of Cell Biology, 2023).

B7: coiled-coil domain of Bik1 (Bik1-CC, residues 182–396) (domain or fragment, S. cerevisiae, UniProt P11709 182-396, looked up)
chain: DNGHMNDLNSSEVTIELREAQLTIEKLQRKQLHYKRLLDDQRMVLEEVQPTFDRYEATIQEREKEIDHLKQQLELERRQQAKQKQFFDAENEQLLAVVSQLHEEIKENEERNLSHNQPTGANEDVELLKKQLEQLRNIEDQFELHKTKWAKEREQLKMHNDSLSKEYQNLSKELFLTKPQDSSSEEVASLTKKLEEANEKIKQLEQAQAQTAVES
notes: Bik1 coiled-coil domain, S. cerevisiae CLIP-170 ortholog, residues 182–396; Dimer by SEC-MALS (51 kD); source: recombinantly expressed and purified (E. coli BL21 (DE3), IMAC, SEC)

Legend:
[1] = target: T1, tubulin (free αβ-tubulin heterodimer) ( (bovine brain tubulin used …, UniProt Q6B856 1-445)); assay: SEC-MALS; 25°C; 20 mM Hepes pH 7.4, 200 mM NaCl, 1 mM DTT; 4–8 mg/ml applied; MBP-Kip2(71-560)-mCherry or its P1^− mutant alone and mixed with tubulin; conditions: both partners purified
[2] = target: the molecule itself; assay: as above
[3] = target: tubulin (free αβ-tubulin heterodimer) (not stated (bovine brain tubulin used for pelleting, pig brain tubulin for TIRF)) (UniProt Q6B856)
[4] = target: the molecule itself; assay: SEC-MALS; 25°C; 20 mM Tris-HCl pH 7.5, 150 mM NaCl, 1 mM DTT; 4–8 mg/ml of each protein applied, single proteins and mixtures (Bik1-CC, Kip2-NMD, Kip2-NMD-ΔT)
[5] = target: T1, tubulin (free αβ-tubulin heterodimer); assay: SEC-MALS; equimolar mixture of tubulin and Kip2-MD in its apo state; 25°C; conditions: both partners purified
[6] = target: B7; assay: SEC-MALS; 25°C; 20 mM Tris-HCl pH 7.5, 150 mM NaCl, 1 mM DTT; 4–8 mg/ml of each protein applied, single proteins and mixtures (Bik1-CC, Kip2-NMD, Kip2-NMD-ΔT); conditions: both partners purified

Chain of tubulin (free αβ-tubulin heterodimer) (not stated (bovine brain tubulin used for pelleting, pig brain tubulin for TIRF)) (Q6B856 whole entry, looked up, one chain of several): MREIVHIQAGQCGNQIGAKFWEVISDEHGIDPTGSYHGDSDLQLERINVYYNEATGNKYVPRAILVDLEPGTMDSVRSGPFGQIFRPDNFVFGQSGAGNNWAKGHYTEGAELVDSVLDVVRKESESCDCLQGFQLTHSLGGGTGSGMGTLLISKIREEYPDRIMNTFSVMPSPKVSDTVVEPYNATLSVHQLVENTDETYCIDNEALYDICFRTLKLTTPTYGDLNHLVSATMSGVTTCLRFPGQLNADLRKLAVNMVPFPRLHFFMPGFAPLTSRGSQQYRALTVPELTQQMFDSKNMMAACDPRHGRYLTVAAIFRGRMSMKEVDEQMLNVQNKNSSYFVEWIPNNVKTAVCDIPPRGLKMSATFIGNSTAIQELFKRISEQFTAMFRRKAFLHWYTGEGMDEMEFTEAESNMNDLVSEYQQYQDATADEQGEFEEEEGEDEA

B1: MBP-Kip2(71-560)-mCherry (domain or fragment, S. cerevisiae, UniProt P28743 71-560, looked up)
chain: KSDPFLHPGRIRIRRSDSINNNSRKNDTYTGSITVTIRPKPRSVGTSRDHVGLKSPRYSQPRSNSHHGSNTFVRDPWFITNDKTIVHEEIGEFKFDHVFASHCTNLEVYERTSKPMIDKLLMGFNATIFAYGMTGSGKTFTMSGNEQELGLIPLSVSYLFTNIMEQSMNGDKKFDVIISYLEIYNERIYDLLESGLEESGSRISTPSRLYMSKSNSNGLGVELKIRDDSQYGVKVIGLTERRCESSEELLRWIAVGDKSRKIGETDYNARSSRSHAIVLIRLTSTNVKNGTSRSSTLSLCDLAGSERATGQQERRKEGSFINKSLLALGTVISKLSADKMNSVGSNIPSPSASGSSSSSGNATNNGTSPSNHIPYRDSKLTRLLQPALSGDSIVTTICTVDTRNDAAAETMNTLRFASRAKNVALHVSKKSIISNGNNDGDKDRTIELLRRQLEEQRRMISELKNRSNIGEPLTKSSNESTYKDIKATGN
notes: Kip2 motor domain with a first helix predicted to form part of the coiled coil, S. cerevisiae, residues 71–560; Mixed monomers and dimers by SEC-MALS (185 kD; monomer calculated 125.8 kD); also called MBP-Kip2-MD-mCherry; MBP-Kip2-MD; not shown: MBP, N-terminal, kept; mCherry, C-terminal, kept
- stoichiometry N [1]: 1 MBP-Kip2-MD-mCherry dimer per tubulin dimer
- stoichiometry N [2]: 2

B2: MBP-Kip2(71-560)-P1^−-mCherry (domain or fragment, S. cerevisiae, UniProt P28743 71-560, looked up)
chain: KSDPFLHPGRIRIRRSDSINNNSRKNDTYTGSITVTIRPKPRSVGTSRDHVGLKSPRYSQPRSNSHHGSNTFVRDPWFITNDKTIVHEEIGEFKFDHVFASHCTNLEVYERTSKPMIDKLLMGFNATIFAYGMTGSGKTFTMSGNEQELGLIPLSVSYLFTNIMEQSMNGDKKFDVIISYLEIYNERIYDLLESGLEESGSRISTPSRLYMSKSNSNGLGVELAIADDSQYGVKVIGLTERRCESSEELLRWIAVGDKSRKIGETDYNARSSRSHAIVLIRLTSTNVKNGTSRSSTLSLCDLAGSERATGQQERRKEGSFINKSLLALGTVISKLSADKMNSVGSNIPSPSASGSSSSSGNATNNGTSPSNHIPYRDSKLTRLLQPALSGDSIVTTICTVDTRNDAAAETMNTLRFASRAKNVALHVSKKSIISNGNNDGDKDRTIELLRRQLEEQRRMISELKNRSNIGEPLTKSSNESTYKDIKATGN
notes: Kip2 motor domain with a first helix of the coiled coil, S. cerevisiae, residues 71–560, patch 1 (Lys294, Arg296) substituted with alanines; Mixed monomers and dimers by SEC-MALS (192 kD); also called MBP-Kip2-MD-P1^−-mCherry; MBP-Kip2-MD-P1; not shown: MBP, N-terminal, kept; mCherry, C-terminal, kept
- stoichiometry N [2]: 2

B3: MBP-Kip2(1-560)-RFP (domain or fragment)
chain: MIQKMSPSLRRPSTRSSSGSSNIPQSPSVRSTSSFSNLTRNSIRSTSNSGSQSISASSTRSNSPLRSVSAKSDPFLHPGRIRIRRSDSINNNSRKNDTYTGSITVTIRPKPRSVGTSRDHVGLKSPRYSQPRSNSHHGSNTFVRDPWFITNDKTIVHEEIGEFKFDHVFASHCTNLEVYERTSKPMIDKLLMGFNATIFAYGMTGSGKTFTMSGNEQELGLIPLSVSYLFTNIMEQSMNGDKKFDVIISYLEIYNERIYDLLESGLEESGSRISTPSRLYMSKSNSNGLGVELKIRDDSQYGVKVIGLTERRCESSEELLRWIAVGDKSRKIGETDYNARSSRSHAIVLIRLTSTNVKNGTSRSSTLSLCDLAGSERATGQQERRKEGSFINKSLLALGTVISKLSADKMNSVGSNIPSPSASGSSSSSGNATNNGTSPSNHIPYRDSKLTRLLQPALSGDSIVTTICTVDTRNDAAAETMNTLRFASRAKNVALHVSKKSIISNGNNDGDKDRTIELLRRQLEEQRRMISELKNRSNIGEPLTKSSNESTYKDIKATGN
- average speed of microtubule growth in dynamic microtubule assay (porcine tubulin), 2 nM Kip2-WT, fold increase over no addition [3]: > 13 fold
- frequency of catastrophe in dynamic microtubule assay (porcine tubulin), 2 nM Kip2-WT, fold reduction against no addition [3]: 19 fold
- length of freshly polymerized microtubules in dynamic microtubule assay (7 µM porcine tubulin, ATP), 2 nM Kip2-WT, fold over no addition [3]: 5 fold

B4: MBP-Kip2(1-560)-P1^−-RFP (domain or fragment)
chain: MIQKMSPSLRRPSTRSSSGSSNIPQSPSVRSTSSFSNLTRNSIRSTSNSGSQSISASSTRSNSPLRSVSAKSDPFLHPGRIRIRRSDSINNNSRKNDTYTGSITVTIRPKPRSVGTSRDHVGLKSPRYSQPRSNSHHGSNTFVRDPWFITNDKTIVHEEIGEFKFDHVFASHCTNLEVYERTSKPMIDKLLMGFNATIFAYGMTGSGKTFTMSGNEQELGLIPLSVSYLFTNIMEQSMNGDKKFDVIISYLEIYNERIYDLLESGLEESGSRISTPSRLYMSKSNSNGLGVELAIADDSQYGVKVIGLTERRCESSEELLRWIAVGDKSRKIGETDYNARSSRSHAIVLIRLTSTNVKNGTSRSSTLSLCDLAGSERATGQQERRKEGSFINKSLLALGTVISKLSADKMNSVGSNIPSPSASGSSSSSGNATNNGTSPSNHIPYRDSKLTRLLQPALSGDSIVTTICTVDTRNDAAAETMNTLRFASRAKNVALHVSKKSIISNGNNDGDKDRTIELLRRQLEEQRRMISELKNRSNIGEPLTKSSNESTYKDIKATGN
- average growth speed of microtubules in dynamic microtubule assay (porcine tubulin), 2, 4 and 8 nM Kip2-P1^− (no speed-up at 2 nM), fold over no addition [3]: 2.9 fold
- effect on catastrophe frequency in dynamic microtubule assay (porcine tubulin), 2 nM Kip2-P1^−, against the wild-type protein [3]: 10 fold

B5: Kip2-NMD-ΔT (truncated non-motor domain of Kip2, residues 504–645) (domain or fragment, S. cerevisiae, UniProt P28743 504-645, looked up)
chain: SNGNNDGDKDRTIELLRRQLEEQRRMISELKNRSNIGEPLTKSSNESTYKDIKATGNDGDPNLALMRAENRVLKYKLENCEKLLDKDVVDLQDSEIMEIVEMLPFEVGTLLETKFQGLESQIRQYRKYTQKLEDKIMALEKS
notes: Kip2 non-motor domain lacking the C-terminal tail, S. cerevisiae, residues 504–645; Dimer by SEC-MALS (34 kD); also called Kip2-NMD-∆T; source: E. coli BL21 (DE3), purified (IMAC, SEC); not shown: His6, N-terminal, cleaved
- stoichiometry N [4]: 2

B6: Kip2 motor domain (Kip2-MD, residues 100–503) (domain or fragment, S. cerevisiae, UniProt P28743 100-503, looked up)
chain: TGSITVTIRPKPRSVGTSRDHVGLKSPRYSQPRSNSHHGSNTFVRDPWFITNDKTIVHEEIGEFKFDHVFASHCTNLEVYERTSKPMIDKLLMGFNATIFAYGMTGSGKTFTMSGNEQELGLIPLSVSYLFTNIMEQSMNGDKKFDVIISYLEIYNERIYDLLESGLEESGSRISTPSRLYMSKSNSNGLGVELKIRDDSQYGVKVIGLTERRCESSEELLRWIAVGDKSRKIGETDYNARSSRSHAIVLIRLTSTNVKNGTSRSSTLSLCDLAGSERATGQQERRKEGSFINKSLLALGTVISKLSADKMNSVGSNIPSPSASGSSSSSGNATNNGTSPSNHIPYRDSKLTRLLQPALSGDSIVTTICTVDTRNDAAAETMNTLRFASRAKNVALHVSKKSII
notes: Kip2 motor domain, S. cerevisiae, residues 100–503; Used in its apo state; The methods tell cleavage of the His tag only for Kip2-NMD and Kip2-NMD-ΔT; also called apo Kip2-MD; source: E. coli BL21 (DE3), purified (IMAC, SEC)
- stoichiometry N [5]: 1

Binder: B7
- stoichiometry N [4]: 2

B8: Kip2 non-motor domain (Kip2-NMD, residues 504–706) (domain or fragment, S. cerevisiae, UniProt P28743 504-706, looked up)
chain: SNGNNDGDKDRTIELLRRQLEEQRRMISELKNRSNIGEPLTKSSNESTYKDIKATGNDGDPNLALMRAENRVLKYKLENCEKLLDKDVVDLQDSEIMEIVEMLPFEVGTLLETKFQGLESQIRQYRKYTQKLEDKIMALEKSGHTAMSLTGCDGTEVIELQKMLERKDKMIEALQSAKRLRDRALKPLINTQQSPHPVVDNDK
notes: Kip2 non-motor domain (coiled coil and C-terminal tail), S. cerevisiae, residues 504–706; Dimer by SEC-MALS (45 kD); PreScission site between His tag and protein; also called NMD-Kip2; source: E. coli BL21 (DE3), purified (IMAC, SEC); not shown: His6, N-terminal, cleaved
- stoichiometry N [6]: 1 Kip2-NMD dimer per Bik1-CC dimer
- stoichiometry N [4]: 2
